Target: human cloned somatostatin receptor 2 (human) (UniProt P30874)
Test: cell-based or functional assay

Chain of human cloned somatostatin receptor 2 (human) (P30874 whole entry): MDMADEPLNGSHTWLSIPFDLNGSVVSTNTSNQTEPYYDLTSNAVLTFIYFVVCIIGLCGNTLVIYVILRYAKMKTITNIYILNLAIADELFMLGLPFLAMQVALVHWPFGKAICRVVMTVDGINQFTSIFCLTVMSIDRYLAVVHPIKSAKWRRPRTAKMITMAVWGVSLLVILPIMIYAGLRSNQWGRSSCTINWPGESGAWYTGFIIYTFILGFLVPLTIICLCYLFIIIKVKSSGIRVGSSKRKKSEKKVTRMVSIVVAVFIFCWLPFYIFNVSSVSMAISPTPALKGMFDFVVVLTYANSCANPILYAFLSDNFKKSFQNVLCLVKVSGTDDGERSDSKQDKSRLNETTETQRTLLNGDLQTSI

Cellular Internalization EC50 (β-Arrestin Luminescence Assay): 3 nM
Efficacy - maximal response: 47500 RLU
Substance: SRIF-28 (from UniProt P61278 89-116) (ligand)
